Laboratory results reported in publication PMC9727766 (bioRxiv, 2022).

Assays:
[1] = molecular target: SARS-CoV-2 S protein, C-terminally truncated, Omicron BA.1, on 293T cells (SARS-CoV-2 Omicron BA.1 (B.1.1.529), …, strain); assay: flow cytometry on cells
[2] = molecular target: SARS-CoV-2 S protein, C-terminally truncated, Omicron BA.4/BA.5, on 293T cells (SARS-CoV-2 Omicron BA.4/BA.5, strain); assay: flow cytometry on cells

B1: fp.006 monoclonal antibody (IgG) (antibody, V domains shown)
VH: EVQLVESGGGVVQPGGSLRLSCAASGFNFNNYALHWVRQAPGKGLEWVAIISYEARNKKYGVSVMGRFSISRDNSKSIMYLEMNSLRVEDTGVYYCARDLFLSDYDRSGYDPTRGGFDHWGQGTLVTVSS
VL: EIVMTQSPATLSVSPGERATLSCRASQSVSSSLAWYQHRFGQAPRLLISGASTRATGIPGRFSGSGSGTEFTLTISSLQSEDVAVYYCQQYGDWPLVTFGGGTKVEIK
Question: With B1 as the binder, how does the “fold increase of binding with soluble ACE2” value [1] read?
Answer: 5.3 fold

Question: And the “fold increase of binding with soluble ACE2” value [2]?
Answer: 8.2 fold
